This note sets out measurements from patent publication EP4714971A1 (Shanghai Hansoh Biomedical Co., Ltd., dated 2024).

This test concerns the target T1, human SEZ6 expressed on stably transfected CHO-K1 cells (human, UniProt Q53EL9 20-994).
T1 construct: also called CHO-SEZ6; hSEZ6
T1 sequence: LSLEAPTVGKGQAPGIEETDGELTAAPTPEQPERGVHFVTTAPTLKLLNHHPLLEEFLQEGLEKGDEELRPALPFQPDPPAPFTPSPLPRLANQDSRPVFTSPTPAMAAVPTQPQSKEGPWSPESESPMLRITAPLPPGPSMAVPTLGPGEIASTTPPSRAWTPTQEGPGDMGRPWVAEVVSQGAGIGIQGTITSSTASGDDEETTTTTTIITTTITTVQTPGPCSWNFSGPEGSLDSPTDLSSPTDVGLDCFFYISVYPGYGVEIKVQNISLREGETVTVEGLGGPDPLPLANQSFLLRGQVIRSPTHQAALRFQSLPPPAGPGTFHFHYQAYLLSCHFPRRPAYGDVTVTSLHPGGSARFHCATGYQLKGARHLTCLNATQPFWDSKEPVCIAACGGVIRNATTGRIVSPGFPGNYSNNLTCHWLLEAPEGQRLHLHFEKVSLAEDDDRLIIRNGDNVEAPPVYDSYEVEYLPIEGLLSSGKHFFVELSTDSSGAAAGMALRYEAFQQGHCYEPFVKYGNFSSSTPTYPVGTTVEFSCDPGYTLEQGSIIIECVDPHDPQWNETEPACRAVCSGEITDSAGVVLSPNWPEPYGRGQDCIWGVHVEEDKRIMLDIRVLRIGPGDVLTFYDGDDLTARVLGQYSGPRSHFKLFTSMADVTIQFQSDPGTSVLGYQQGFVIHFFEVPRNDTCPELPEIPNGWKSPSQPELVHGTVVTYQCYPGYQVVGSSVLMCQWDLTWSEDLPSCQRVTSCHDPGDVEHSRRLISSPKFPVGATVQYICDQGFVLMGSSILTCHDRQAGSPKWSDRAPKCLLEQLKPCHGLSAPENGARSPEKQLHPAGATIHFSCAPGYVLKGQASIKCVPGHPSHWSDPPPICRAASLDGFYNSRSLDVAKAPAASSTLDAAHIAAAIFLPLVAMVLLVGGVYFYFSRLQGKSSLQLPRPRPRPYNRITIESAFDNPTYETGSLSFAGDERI
Kind of test: flow cytometry on CHO-K1 cells expressing human SEZ6.

In general, EC50 refers to the concentration at which the effect is half-maximal.

B1: cAb025 (Fc fusion)
VHH: EVQLVESGGGSVQPGGSLRLSCEASGLTYNKDCMAWFRQAPGKEREGVAIINGVGRTRYADSVKGRFTISKDNAKNTLYLQMNNLKPEDTAMYYCAAQRASSSCGSLSRAWYDYWGRGTQVTVSS
notes: VHH-hFc expressed in 293 cells; Parent of PR0069; also called chimeric nanobody; camel-derived SEZ6 chimeric antibody; not shown: The human Fc (hFc) of the VHH-hFc construct
B1 came in with an EC50 of 0.23 nM and an MFImax of 6600.

B2: cAb314 (Fc fusion)
VHH: HVQLVESGGGSVQAGGSLRLSCAVSGFTSSRGWMAWFRQAPGKEREGVAVIGRRSGDIYYADSLKGRFTISHDSTENTLYLQMNNLKPEDTATYYCAVGDQAGHVLTSSPYRYWGQGTQVTVSS
notes: VHH-hFc expressed in 293 cells; Parent of PR0071; also called chimeric nanobody; camel-derived SEZ6 chimeric antibody; not shown: The human Fc (hFc) of the VHH-hFc construct
Take B2: the EC50 was determined as 0.38 nM and the MFImax is 8480.
